The text below walks through data of publication PMC11256085.

The assay has as its target EnfB, ThiF-like adenylyltransferase (TLAT) (Enterococcus faecium strain FDAARGOS_397 (methods); E. faecalis FDAARGOS_397 (results)).

As for “EnfA with Trp18 substituted by Ala (peptide)”, the conversion of the EnfA variant by EnfB (in vitro enzyme assay, LC-MS) came to 2.1%.
